Experiments:
Format in all cases: biochemical
[1] = test system: RNA (mRNA derived from yeast); assay: degrading activity for RNA
[2] = test system: Circular plasmid DNA (pUC 18); assay: degradation of circular plasmid DNA (agarose gel electrophoresis); conditions: single enzyme, 25 degrees Celsius, 15 minutes; NucL level up to 0.5 U
Procedure: Circular plasmid DNA (pUC 18) that had been purified by using a plasmid purification kit (HiSpeed (Registered Trademark) Plasmid Midi Kit; manufactured by QIAGEN, Cat no. 12643) was used as substrate to analyze nucleic-acid degradation styles of NucS and NucL. According to the standard specific activity measurement method, the enzyme solutions that were different in enzyme level as shown in the table below were added to a plasmid solution (about 2 to 10 μg). Then, a nucleic-acid degradation reaction was carried out at 25 degrees Celsius for 15 minutes. After the degradation, a reaction solution was subjected to a 1-percent agarose gel electrophoresis, and the degradation manner of the degraded DNA was analyzed.
Next, the enzyme level of NucL was increased to 0.5 U, and a test was conducted to examine if the plasmid could be completely degraded (referring to FIG. 13).

[3] = test system: Deoxyribonucleic acid sodium salt from salmon testes; assay: effects of divalent metal salt on enzyme activity; conditions: 20 mM Tris/HCl pH 8.5, 1 mM CaCl2, 25 degrees Celsius
Procedure: Effects of divalent metal salt on NucS and NucL were examined. NucS or NucL was added to a reaction solution that was obtained by adding, as substrate, Deoxyribonucleic acid sodium salt from salmon testes 0.4 mg/mL (manufactured by Sigma-Aldrich; Cat no. D1626-1G) into 20 mM of Tris/HCl at pH 8.5 that contained 1 mM of CaCl2 and 0 to 20 mM of MgCl2 or MnCl2; and the mixture was incubated in ice for 30 minutes. Then, the nucleic-acid degradation activity was measured at 25 degrees Celsius for 15 minutes. […] Incidentally, in the present test, in order to enhance the stability of the enzymes, 1 mM of CaCl2 was added to all the reaction solutions.

[4] = phosphatase activity test; conditions: 100 mM Tris/HCl pH 8.5, 1 mM MgCl2, 1 mM CaCl2, 1 percent glycerol, 25 degrees Celsius
Procedure: (§1) Bis(p-nitrophenyl)phosphate and p-nitrophenylphosphate were used as substrate. The method of Tomoyeda et al. (referring to Archives of biochemistry and biophysics. 131(1), 191-202, 1969; the contents of the document are incorporated herein by reference) was used. In 100 mM of Tris/HCl at pH 8.5 that contained 1 mM of MgCl2, 1 mM of CaCl2, and 1 percent of glycerol, with the use of a reaction solution that contained 0.2 percent of the above substrate, the phosphodiesterase activity and phosphatase activity of both enzymes were measured at 25 degrees Celsius.

[5] = phosphodiesterase activity test; conditions: 100 mM Tris/HCl pH 8.5, 1 mM MgCl2, 1 mM CaCl2, 1 percent glycerol, 25 degrees Celsius
Procedure: as §1

[6] = effects of temperature on enzyme activity; conditions: 15 minutes, 20 mM Tris/HCl pH 8.5, 1 mM MgCl2, 1 mM CaCl2
Procedure: Under each temperature condition, the nucleic-acid degradation activity was measured for 15 minutes in 20 mM of Tris/HCl at pH 8.5 that contained 1 mM of MgCl2 and 1 mM of CaCl2.

[7] = test system: Deoxyribonucleic acid sodium salt from salmon testes; assay: effects of monovalent salt on enzyme activity; conditions: 10 mM Tris/HCl pH 8.5, 1 mM MgCl2, 25 degrees Celsius
Procedure: Effects of monovalent salt on NucS and NucL were examined. At each concentration level of NaCl, the nucleic-acid degradation activity was measured at 25 degrees Celsius for 15 minutes by using, as substrate, Deoxyribonucleic acid sodium salt from salmon testes 0.4 mg/mL (manufactured by Sigma-Aldrich; Cat no. D1626-1G) in 10 mM of Tris/HCl at pH 8.5 that contained 1 mM of MgCl2 and 0 to 1,000 mM of NaCl. […] Substantially similar results were obtained even in the case of using KCl (referring to FIG. 8).

[8] = test system: Deoxyribonucleic acid sodium salt from salmon testes; assay: effects of phosphate on enzyme activity
Procedure: Effects of phosphate on NucS and NucL were examined. In 0 to 40 mM of potassium phosphate buffer at pH 8.5 that contained 1 mM of MgCl2 and 1 mM of CaCl2, the nucleic-acid degradation activity was measured at 25 degrees Celsius for 15 minutes by using, as substrate, Deoxyribonucleic acid sodium salt from salmon testes 0.4 mg/mL (manufactured by Sigma-Aldrich; Cat no. D1626-1G). […] Meanwhile, compared with NucS, NucL was excellent in resistance to phosphate. NucL could maintain 50 percent of activity even in the presence of 10 mM of potassium phosphate (referring to FIG. 11).

[9] = test system: Salmon sperm DNA; assay: standard specific activity measurement method (increase of absorbancy at 260 nm); conditions: 37 degrees Celsius; for specific activity: purified enzyme, 30 minutes, 20 mM Tris/HCl pH 8.5, 1 mM MgCl2, 1 mM CaCl2
Procedure: The specific activity of NucS was measured at 37 degrees Celsius in 20 mM of Tris/HCl at pH 8.5 that contains 1 mM of MgCl2 and 1 mM of CaCl2 (a measurement method under the condition described here is also referred to as a standard specific activity measurement method, hereinafter); the specific activity was 3.6×10^6 U/mg-protein, which was a very high level of specific activity. In this case, 1 U represents an amount of enzymes necessary to increase the absorbancy of 260 nm by one for 30 minutes when the enzymes works on the following as substrate: Salmon sperm DNA 1 mg/mL (manufactured by Invitrogen; Cat no. 15632-011). As a reference, as for NucS, when the specific activity of Benzonase (Registered Trademark), which was a commercially available nucleolytic enzyme that had the highest specific activity among those listed in a brochure, was measured under the conditions described in the brochure (37 degrees Celsius) with the use of the same substrate; the specific activity was 9.4×10^5 U/mg-protein. As a result, it became clear that the specific activity of NucS is about 3.8 times higher than that of Benzonase.
The specific activity of NucL was 5.6×10^4 U/mg-protein at 37 degrees Celsius in 20 mM of Tris/HCl at pH 8.5 that contains 1 mM of MgCl2 and 1 mM of CaCl2. The isoelectric point was measured by using Novex (Registered Trademark) IEF pH-3-10 gel (manufactured by Invitrogen); and then pl was 7.0. Then, it was determined that a N-terminal amino acid sequence of the purified enzyme was DSVRIHDIQGTTR. The sequence matched 12 out of 13 amino acids of putative protein (putative secreted hydrolase) coded on a genome of Streptomyces scabiei 87.22, and of putative protein (large secreted protein) coded on a genome of S. avermitilis MA-4680.

| Molecule | RNA degrading activity [1] | degradation of circular plasmid DNA, supercoiled or relaxed type [2] | requirement of divalent metal salt for activation [3] | phosphatase activity [4] | phosphodiesterase activity [5] | optimum reaction temperature [6] | NaCl concentration up to which the enzyme remained active [7] | activity maintained in the presence of phosphate ([8]; 10 mM of potassium phosphate, pH 8.5, 25 degrees Celsius) [%] | specific activity [9] | activity in the presence of 1 to 2 mM of MnCl2 compared with MgCl2 [3] | activity in dependence on NaCl concentration ([7]; 0 to 1,000 mM NaCl) | phosphate concentration that made the enzyme inactive ([8]; potassium phosphate buffer pH 8.5, 1 mM MgCl2, 1 mM CaCl2, 25 degrees Celsius) [mM] | specific activity of NucS relative to Benzonase ([9]; same substrate) |
| --- | --- | --- | --- | --- | --- | --- | --- | --- | --- | --- | --- | --- | --- |
| NucL: nucleolytic enzyme of about 66.5 kDa secreted by Streptomyces sp. MBE174; SEQ ID NO. 4 (protein, Streptmyces sp. MBE174) MASQSVTRLAALTVAATCSAASVVVLGPPAHADSVRIHDIQGTTRISPYAGRQVADVPGVVTGVRDHGSSRGFWFQDPRPDDDPATSEGVFVFTGSAPGVEAGDAVTVSGTVSEFVPGGTASGNQSLTEITRPTVTVVSRGNPVPDPVVVSARSVPHAYAPAGDAAANGSVNALPLRPDRYALDYYESLEGMNVQVADARVVGATDPYTELWVTVKPGENASPRGGTVYGSRDAQNTGRLQIQTLGVPAGFPAADVGDTLAGATTGPLDYNQFGGYTLVARSLGTLTAGGLARETTREQHRDELSVATYNVENLDPSDGTFAAHAEAIVRNLRSPDIVSLEEIQDDNGATDDGTVTAGVTVGKLIDAVVAAGGPRYDWRSVDPVDKADGGQPGGNIRQVFLFDPRRVSFADRPGGDAVTATGVVKVRGKAALTHSPGRVDPANPAWLNSRKPLAGEFSFRGRTVFVIANHFASKGGDQGLTSQYQPPARSSETQRHLQATAVNTFVKQILAVQKNADVIALGDINDFEFSGTTERLEAGGALWSAVRSLPPGERYSYVYQGNSQVLDQILVSPSIRRGHLSYDSVHINAEFHDQISDHDPQVLRYRP | did not show RNA degrading activity | could completely degrade the plasmids | required divalent metal salt for activation | has | has | around 45 degrees Celsius | up to 1,000 mM | 50 | 5.6×10^4 U/mg-protein | – | – | – | – |
| NucS: low-molecular-weight nucleolytic enzyme, about 17 to 21 kDa, secreted by Streptomyces sp. MBE174; SEQ ID NO. 3 (protein, Streptmyces sp. MBE174) MPKLYARRRFAVLAALTGLIASAGLFHGPAASAALPTPVSAATARGYLASLKVAPENRTGYKRDLFPHWITQSGTCNTRETVLKRDGTNVVTDAACAATSGSWYSPFDGATWTAASDVDIDHLVPLAEAWDSGASAWTTAQRQAFANDLTRPQLLAVTDTVNQSKGDKDPAEWMPPRAAYHCTYVRAWVQVKYYYGLSVDTAEKTALTNRLAGC | showed RNA degrading activity | could completely degrade the plasmids | required divalent metal salt for activation | does not have | does not have | around 55 degrees Celsius | – | – | 3.6×10^6 U/mg-protein | substantially the same level of activity | high when the concentration of NaCl was low | ≥ 0.5 | about 3.8 times |
